# Experimental data as given in patent publication US12162911B2, “Pulmonary administration of pyocins for treating bacterial respiratory infections” (priority 2014, dated 2024).
# Experiments:
# P. aeruginosa = conditions: in vivo; cited from earlier work
# P. aeruginosa P5 = assay: Pyocin activity in vitro against P. aeruginosa P5; format: cell-based, Pseudomonas aeruginosa
# Procedure: (§1) Pyocin sensitivity assays: overlay spot plate method. Soft agar overlay spot plates were performed using the method of ^35. 150 μl of test strain culture at OD600 nm=0.6 was added to 6 ml of 0.8% soft agar and poured over an LB agar plate. 5 μl of bacteriocin, lung homogenate or blood at varying concentrations was spotted onto the plates and incubated for 24 h at 37° C.
# (§2) Since strains of P. aeruginosa are phenotypically diverse, we tested the efficacy of the pyocins against three additional isolates: P. aeruginosa P17 and P. aeruginosa P5 (mucoid), both from cystic fibrosis patients and P. aeruginosa E2, an environmental isolate.
# P. aeruginosa P8 = assay: Mouse model of acute lung infection, P. aeruginosa P8; format: in vivo, Pseudomonas aeruginosa
# Procedure: Study design. […] For all experiments 6 week-old, female, murine pathogen free C57/BL6 mice weighing 15-21 g were used (Charles Rivers Laboratories, UK). All mice received food and water ad libitum and were housed in groups during the experiments. Power calculations were used to predetermine sample size (n=6, for all treatment experiments). Mice were culled when required as determined by a scoring system or culled at the pre-determined 24 h time point. All mice, including outliers were included in the statistical analysis. Experiments were either carried out once only or repeated once (defined for each experiment).
# (§3) Model of acute lung infection. Female C57/BL6 mice were inoculated intranasally with 25 μl of bacterial culture containing approximately 10^7 CFU of the selected P. aeruginosa strain^36. Antibiotic treatments were administered at either 6 h pre-infection or 1 h post-infection and were administered only once. Pyocins or tobramycin dissolved in PBS were administered via intranasal administration as described above. Two different end-points were used in these experiments. In order to determine a reduction in the bacterial load of the lungs compared to the untreated controls, all mice in the experiment were culled by carbon dioxide asphyxiation at the same time; 4-6 h post infection. To determine if mice could survive infection after pyocin or tobramycin treatment, mice were monitored closely, culled by carbon dioxide asphyxiation when required as determined by a scoring system or culled at the pre-determined 24 h time point. Uninfected mice, treated with pyocins, were used as controls in the first series of experiments in order to ensure no adverse effects from pyocin treatment. These controls were stopped in later experiments in order to reduce the number of animals used, once it was clear that the pyocins were not harmful. For CFU determination, lungs were removed aseptically and kept on ice in 750 μl of PBS until homogenised. Serial 10-fold dilutions of the homogenised lung were plated on Pseudomonas selective agar (20 g peptone, 1.5 g K2HPO4, 1.5 g MgSO4·7H2O, 10 ml glycerol, 15 g agar, 0.025 g Irgasan per litre) and incubated at 37° C. for 24 h and then room temperature for 24 h before the colonies were counted.
# P8AP41T = assay: Mouse model of acute lung infection, AP41 tolerant strain P8AP41T; format: in vivo, Pseudomonas aeruginosa; conditions: 3 mg ml^−1 1 h post-infection
# Procedure: as §3
# In order to determine if pyocin tolerance or resistance was acquired upon pyocin treatment in vivo, viable bacteria recovered from mice that survived infection to the 24 h end-point, in all experiments discussed in this work, were tested for pyocin susceptibility. From these experiments no pyocin resistant colonies were isolated. […] Importantly, sensitivity to pyocins S5 and L1 were unaffected in vitro in this pyocin AP41-tolerant strain (FIG. 3a) and this was also shown to be the case in vivo when mice were infected with P8AP41T.
# P. aeruginosa P17 = assay: Mouse model of acute lung infection, P. aeruginosa P17; format: in vivo, Pseudomonas aeruginosa
# Procedure: as §3
# Since strains of P. aeruginosa are phenotypically diverse, we tested the efficacy of the pyocins against three additional isolates: P. aeruginosa P17 and P. aeruginosa P5 (mucoid), both from cystic fibrosis patients and P. aeruginosa E2, an environmental isolate. Pyocin S2 was not active against P. aeruginosa P5 or P. aeruginosa E2 in vitro therefore was not used to treat these strains in vivo and similarly pyocin L1 was not used against P. aeruginosa P17. […] Lung homogenates from P. aeruginosa E2-infected AP41-treated mice contained high levels of viable bacteria, reduced only 10-fold relative to control mice (Table 1). […] Thus, pyocins show strong efficacy against diverse strains of P. aeruginosa with pyocin S5 treatment displaying the largest effect on reducing bacterial load.
# P. aeruginosa E2 = assay: Pyocin activity in vitro against P. aeruginosa E2; format: cell-based
# Procedure: as §1, §2
molecule,measurement,setting,value
"Pyocin S2: S-type pyocin, SEQ ID NO: 1; targeting domain binds FpvAI, effector has DNase activity (protein, listed as Pseudomonas aeruginosa) MAVNDYEPGSMVITHVQGGGRDIIQYIPARSSYGTPPFVPPGPSPYVGTGMQEYRKLRSTLDKSHSELKKNLKNETLKEVDELKSEAGLPGKAVSANDIRDEKSIVDALMDAKAKSLKAIEDRPANLYTASDFPQKSESMYQSQLLASRKFYGEFLDRHMSELAKAYSADIYKAQIAILKQTSQELENKARSLEAEAQRAAAEVEADYKARKANVEKKVQSELDQAGNALPQLTNPTPEQWLERATQLVTQAIANKKKLQTANNALIAKAPNALEKQKATYNADLLVDEIASLQARLDKLNAETARRKEIARQAAIRAANTYAMPANGSVVATAAGRGLIQVAQGAASLAQAISDAIAVLGRVLASAPSVMAVGFASLTYSSRTAEQWQDQTPDSVRYALGMDAAKLGLPPSVNLNAVAKASGTVDLPMRLTNEARGNTTTLSVVSTDGVSVPKAVPVRMAAYNATTGLYEVTVPSTTAEAPPLILTWTPASPPGNQNPSSTTPVVPKPVPVYEGATLTPVKATPETYPGVITLPEDLIIGFPADSGIKPIYVMFRDPRDVPGAATGKGQPVSGNWLGAASQGEGAPIPSQIADKLRGKTFKNWRDFREQFWIAVANDPELSKQFNPGSLAVMRDGGAPYVRESEQAGGRIKIEIHHKVRIADGGGVYNMGNLVAVTPKRHIEIHKGGK",activity in an invertebrate model of infection,P. aeruginosa,active
same,activity in vitro,P. aeruginosa P5,not active
same,survival,"P. aeruginosa P8; 300 μg ml^−1 and 30 μg ml^−1 (both concentrations), endpoint 24 h post-infection",survived until the endpoint of the experiment at 24 h post-infection
same,reduction of bacterial load in lung,"P. aeruginosa P8; 3 mg ml^−1 intranasal 1 h post-infection, culled 4.5 h post-infection (FIG. 1c)",~80 fold
same,reduction of bacterial numbers in lung,"P. aeruginosa P8; C57/BL6 mice, 3 mg ml^−1 intranasal 6 h pre-infection, culled 4 h post-infection (FIG. 1a)",approximately 25 fold
same,Lowest active concentration tested,P. aeruginosa P8; lowest concentration tested with which the treated mice survived to 24 h,30 µg/mL
same,Corresponding molarity,P. aeruginosa P8; molarity of lowest active concentration tested,358 nM
same,bacterial numbers in lung homogenates,P8AP41T; 24 h (FIG. 3b),significantly reduced bacterial numbers
same,survival,"P8AP41T; endpoint 24 h, PBS controls culled 6 h post-infection (FIG. 3b)",survived until the endpoint of the experiment at 24 h
same,survival / protection,"P. aeruginosa P17; pyocin 3 mg ml^−1, endpoint 24 h, infected controls culled at 4 h",survived until the 24 h endpoint
same,"bacterial count in lung, P17","P. aeruginosa P17; pyocin 3 mg ml^−1, treated mice survived to 24 h, no treatment 4.4 × 10^5 CFU/lung",No colonies
same,activity in vitro,P. aeruginosa E2,not active
